# Experimental data reported in the DeepSol protein solubility set.
# Test: soluble on expression in E. coli; label from the status in PepcDB or PDB records
row,Sequence,soluble on expression in E. coli
1,MEESRADGRNPNQLRPFSCTRNPLDRAHGSARWAQGDTIVLAAVYGPKPGTRKGENPEKASIEVVWKPMTGQIGKQEKEYEMTLKRTLQSICLLTVHPNTTTSVILQVVGNDGSLLPCAINACCAALVFAGIPLKHLAVAIGCGVLEDGEVILDTNKAEEQQLKSFAHLVFPNSRKSASSKEPNQKEEDSERGLITSITHGVMSEEDYFSCIERGLAASSRISDFMRTTLQKQAPGDVLEHHHHHH,soluble
2,SQPKLALKQLAKQGDECLKKGAWVLIFPEGTRIPVGQMGKFSRGGTALAVNAGLPVLPIAHNAGQYWPKAGWAKYPGTIQVVIGPAMHAEGEGPRAIAELNQRAEAWVSETMAEISPIQQRVSHPEPSVVS,not soluble
3,MAAKLEKTTNSFEVITREWYAKFSPTWNESHGERIIRRFERDIFPWIGSKPISEIAAPELLATVRRIESRGAVETAHRALGNCGQVFRYAIATARATRDISADLRGALPPVKGEHLEHHHHHH,soluble
4,MSLREAMSKQAMLDAIEAEREVLIGFLQEFVRAASPNPPGDTRAAAAVIQGFLSARGVPNELLGPQESMPNVVSECEGGRAGPRLVYNGHMDVFPVGDGHGWTRDPWSGDIEEGRLHGRGTCDMKTGTAASVIAYAYLYARRAQLAGSVALTAVSDEETGGRWGTRWLLENDTRWRGDCVLNGEPSSLDTIRFSEKGTLRLKFEVLAAGAHGAYVHRSESPTRIAAALIGRLAEVEAIEPSLPAALKAHLQREDVRRALDVAMGEGAADVVTRTTLNVGVLNGGLKINMIPDRCVFEVDIRLPVGTEPDVVLARLEGILAEFPQASMEVQQWHSTPPNVCAHDHPMVDFIADNAQAIVGRRPVAVPSIGSTDCRYWRRSGVPAYVYGPAPGRMAMSNESVDLDEFIAVAKVHAAAGWDYLNGAAEGHHHHHH,soluble
5,KIIHIDCDCFYAALEMRDDPSLRGKALAVGGSPDKRGVVATCSYEARAYGVRSAMAMRTALKLCPDLLVVRPRFDVYRAVSKQIHAIFRDYTDLIEPLSLDEAYLDVSASPHFAGSATRIAQDIRRRVAEELHITVSAGVAPNKFLAKIASDWRKPDGLFVITPEQVDGFVAELPVAKLHGVGKVTAERLARMGIRTCADLRQGSKLSLVREFGSFGERLWGLAHGIDERPVEVDSRRQSVSVECTFDRDLPDLAACLEELPTLLEELDGRLQRLDGSYRPDKPFVKLKFHDFTQTTVEQSGAGRDLESYRQLLGQAFARGNRPVRLIGVGVRLLDLQGAHEQLR,not soluble
6,MPPLPEKVQSHRATPIQSSGVSALPLVEYHAPGSDRLAIMISGDGGWRTLDRNLSKELQRRGISVVGWNSLRYFWKLRTPEQLGDDLSRVIADYQRRWGAHQVILIGYSFGADVMPFAYAHLMPTQRNGVDFISLLALGRKADFKARIFGWLGWGEHGTRDVLTALGALDLHRVQCIYGQNDKDAVCPELRERIFDVVMRPGGHHFDGDTVKLADAILQGWQRRIELREPRNADSPR,not soluble
7,MAHHHHHHMNGLRISTYFSAFKMRWMLENVPKVEEARKRGTLCFGTIDAWLLWKLSGGKVFVTDVTNASRTFLMDIRTCKWSPELCDKLGIPMACLPEIRSNSELLTYVLSDEGGLSAALRHPTPIMGSIADQQGALLGNMCFKEGESKNTYGTGCFLLMTVGEKIRFSSHGLLSTVAYQIGNKSPFIYALEGSIAGAGATIEWLKNNMKLIDDVSDCEKFAQTVSDTHGVVFVPAFSGFLAPSWDPSARGSIFGMTLKTTRAHVLRAALLAIALQVVDVLEAMEKDAEVKVQFLRVDGGLTKNHLLMKMQSDLLGINLHRPTMAETTALGAALCAGLAAGVWKSLEEVKTISQQANVWRVIRPAASKDSQQMLRAQWKRAKQQAKWAKL,not soluble
8,MSLKSIAKAQNDFTIFKFGDSEIRVINKCGEPWFVAKDVCDALALTNSRKALTALDDDEKGVTLSYTLGGEQNLSIVSESGMYTLVLRCRDAVNKGSVPHKFRKWVTAEVLPSIRKHGEYVKGKKTTVEERTPLRDAVNMLVGKKGLRNDDAYNMVHQRFGIDSIDELSIEQIPLAVEYIHRVVLEGEFIGKQEKSTNELSAKEANSLVWLWDYANRSQALFRELYPALKQIQSNYSGRCYDYGHEFSYVIGMARDVLINHTRDVDINEPDGPTNLSAWMRLKNKELPPSPHHYEGHHHHHH,not soluble
9,MGSDKIHHHHHHMPLLDIRNLTIELDTPHGRVKALEKVSLMLHAGEIHGLVGESGSGRSLLARAVLGIPGPNWTITADRMMWDGRNLMEMSDVERRNLMGKDMAMIFQDPSGSLDPVITIGAQLIEAMPADKNVPFWRRGRERRLTAQKWLHKVGIKDPKRVMASYPWETSEGECQKVMIAMALANQPRLLIADEPTNSMEPSTQAQIFRLLAQLNQLQGVTIMMISHELETLADWCNNLTVLYCGQVMESGPIDELIREPLHPYTKALMDHLPDYRGNLPHKSLMPVLPGSAPALQHLPIGCRLGPRCPEARRECVHQPQLQHQKDRYYACHFPYRTETNNDDTAA,not soluble
10,IGKVKLSARGTFTYARNKIVEYDELPQRYPWMAQTGMRINENYLYIAERLYTKEDFIVSKNGSGIETYTLRSELPQSTLGGLLGPGDIKYKDINGDGIIDSYDKVRGVGHPKVPEIVYGFGLNIEYKGFYASAFFQGAGNCSVLLGGNTPEGWFPFSWGVDQSNYRTFALDRWTEKNPSQNVLMPRLHKDNTNAANNSVASTWWLRNGGFLRLKNVELGYQLPKKLLSKINLQAARIYLMGYNIALWDDLKYFDPEAGNANGGNTYPKARTFTLGIDFTF,not soluble
11,MGHHHHHHSHLRYMKESQVLLTLTNPVENLTHVTLFECEEGDPDDINSTAKVVVPPKELVLAGKDAAAEYDELAEPQDFQDDPDIIAFRKANKVGIFIKVTPQREEGEVTVCFKMKHDFKNLAAPIRPIEESDQGTEVIWLTQHVELSLGPLLP,soluble
12,QGLVPQGQTQVLQGGNKVPVVNIADPNSGGVSHNKFQQFNVANPGVVFNNGLTDGVSRIGGALTKNPNLTRQASAILAEVTDTSPSRLAGTLEVYGKGADLIIANPNGISVNGLSTLNASNLTLTTGRPSVNGGRIGLDVQQGTVTIERGGVNATGLGYFDVVARLVKLQGAVSSKQGKPLADIAVVAGANRYDHATRRATPIAAGARGAAAGAYAIDGTAAGAMYGKHITLVSSDSGLGVRQLGSLSSPSAITVSSQGEIALGDATVQRGPLSLKGAGVVSAGKLASGGGAVNVAGGGAV,soluble
13,MTDEVILANATLVLRGETVTGSLHIKGETIAGIDQGAHVPAGAVDCEGDFVSPGLVELHTDNLERHIQPRPKVDWPHAAAILAHDAELAGTGITTVFDAMRVGSIPSGAGRYLQYARNLSRELWQLREASALKISHFLHLRAEVCSETLVEELDEFAPEDRVGLVSLMDHTPGQRQFRDMTKLEAYMKGKHAMSDDTFLQHVSQLKGLRDRYGDRHEIETVKAARRLGSVLASHDDTTAEQVAVSAGHGIRLAEFPTTIEAAEACHAHGIKVIMGAPNLIRGGSHSGNVAAADLAERGLLDILSSDYVPSALLLSAVRLGALWGDMARGMATVTRTPAQAVGLDDRGEIAPGLRADLIRFRMSQDVPALQSVWSRGRRVA,not soluble
14,MTTATAGLAVELKQSTAQAHEKAEHSTFMSDLLKGRLGVAEFTRLQEQAWLFYTALEQAVDAVRASGFAESLLDPALNRAEVLARDLDKLNGSSEWRSRITASPAVIDYVNRLEEIRDNVDGPALVAHHYVRYLGNLSGGQVIARMMQRHYGVDPEALGFYHFEGIAKLKVYKDEYREKLNNLELSDEQREHLLKEATDAFVFNHQVFADLGKGL,soluble
15,MKVYLESFGCSASQASAEIMKASIGKLGHELLSPENAGQAEVYICNSCTVKYTTEQKILYKIRSMGEKGVQVIVSGCMPEVQLEDILHANPEAHILGVNAVSRLGDLLSTIEQRKKTGIPGGERLEIRTSEPQGFLNVPRERSNPNIHICQISQGCNFACSYCIVKHARGKLLSFPPEEIIEDIRSAVADGCREIWLTSQDDSQYGMDTGVKLPELLRAISEIPGDFKVRVGMMNPFSVLPILDDLVDAFDSDKIFKLLHLPIQSASHSVLKKMNRLHKMDSVDEIITKFRAHFEDLSLFTDIIVGFCDETDEDFEETIEWVKKYRPEKINISRYSPRPHTKAFSFRNLDSRISVKRSHQLHKVCEQIKIESKNEMIGWKGRVFVSKYTEIGDVLTRTDSYRPVVISGSDLRPGEYAEVKITGAKPGYFLGKLVSLEHHHHHH,soluble
16,MGSDKIHHHHHHMNFISRVTKKNTYMKKAVIYSRVSTDEQAQLGYSLRDQERCLRLFCEKNDLEVVHHYQDDHSAKDFNRPQFQQFLRDVKSKRIKVDYFVCLKQDRFSRDTRLALNSVHDLEKLGVTVKYVENNLDLSIAENIIPYLLNFGIAELENKRLSERTKKGMRQAKREGRWVGTPPRGYKSIPDSTGKKILTPNQYSTLIIEAFTEFAQGNHSTESLRKVLYARGLKVSENQFPNILKNPIYCGKIRIDEWKEEKEEIVIGIHEPLISVELFEKVQRILNGTSTPNKPHKKLDPELPLRPFLKCSCGSNLTGSRSRSRNGNYHYYYHCQNGCSVRFPAKVANKKFETFLSMFSFSEDVILLYKEVLKDEFSKQVKERLELSAADAALKLKTQNLLDNADEKYIANELDNTTYQRVKEKYQKILDTITNKELDSKVVKSEFEKYLKGVTLLDSLDVKYKEGTIEFKNALLGSIFMGKLEFSENEYRTTQINSVVENLLLNFNELASYKKEKATTNSGFLQQAPPLGLEPRTP,not soluble
17,TNTEAFCTSCHEMQSNVFEELTRTVHYTNRSGVRAGCPDCHVPHEWTDKIARKMQASKEVWGHLFGTIDTRRKFLDNRLRLAEHEWARLKANDSLECRNCHSEVAMDFTRQTDRAAQIHTQYLIQTEGYTCIDCHKGIAHEL,not soluble
18,MGSDKIHHHHHHTKKEISTQPIKVGVFDGHGGAQTCIWETVAAIRLDPEMEVRTITTADIANNALDSIDAIIIPGGSGKSQYLNLGTLNQQRIKDFIAKGKGAVGICAGAYLFSNTPDYTCIQLNGQQAIDIEHDNRGHGLAKFTLCEEGKKIFPELADRDTSFVIYYEGPVFINNPVDTIQSNTLAIMESDVHEEGNAPANMTNGKPFFVANNYGKGRVFSSIAHPEGTPGMMWMIPRMVRWTLNKPFIPYQSSAVRPDLFNHESLMATDDLKQEEKAFQILLSGESEQKVAALDWLEAHHSWDAKRWVQGLLYDASPAVRIRAARYIADTHYLPFLPNLQAAYRTETDKATQEELKTQLEKLTALLP,not soluble
19,MILTTTHEIEGRRIERYLGIVFGEAIVGANVLRDLLAQIRDIVGGRSGAYEAELRRARETALAEMAEAARRLGADAVVGVDLDYEVLGSGNSMLMVTASGTAVKLAP,soluble
20,VTVRMDPQRFDELVSDALDLIPPELADAMDNVVVLVANRHPQHENLLGQYEGVALTERGSDYAGSLPDAITIYREALLDACDSEDEVVDQVAITVIHEVAHHFGIDDERLDQLGWRDEPAPGRGNPDLSAPDAMNGP,soluble
21,MSGVTAIEIPQWIQDNQEDFVPPVCNKCMFSDQLKVFYVGGPNQRKDFHLEEGEEFFFQRKGDMVLKVIEKGQVRDLVIKQGEMFMLPARVEHSPQRFSNSIGLVVERERKNTEFDCVRFLVGSSNITLFERWFYLTDVVKDLPPLIKEFYGSNEFKTGKPGKGTFACNAPYEARWTDLPVPINRKEFIYDHISEVKNGPVRIYGAPEYKTEVMLLGEGSYDLESGTVELLIWLQENTFAVVEESGFTYAMKSETMVRIKPNTKCLLNVKGGFAITIRMPA,not soluble
22,MHVLIVDDEPLAREELSYLVSQHPQVTSVAEADSVAEAMEEMMDQKPDLLFLDIHLTDESGFDLAEKLTHLKKAPYLVFATAYDQYALKAFQVNAKDYILKPFEEEKITQVIEKASKEMGQAVPENTAEKGPKSEAIPIQGEDRIYLVAPEDIYLVSVEERQLSIFVDQQVYKMTGTLNSIEQKLPATLFIKTHRSFILNRTKIQEIQPWFNNTLQVILTNGSKVPVSRSYVKEFKEKLGLS,not soluble
